Experimental data from patent US20260242735A1.

Experiments:
Assay in all cases: alanine scan, flow cytometry
human CD33 P238A (human) = human CD33 P238A (human) (UniProt P20138)
human CD33 A269S (human) = human CD33 A269S (human) (UniProt P20138)
human CD33 K250A (human) = human CD33 K250A (human) (UniProt P20138)
human CD33 V231A (human) = human CD33 V231A (human) (UniProt P20138)
human CD33 V257A (human) = human CD33 V257A (human) (UniProt P20138)
human CD33 G241A (human) = human CD33 G241A (human) (UniProt P20138)
human CD33 I242A (human) = human CD33 I242A (human) (UniProt P20138)
human CD33 I242A (human), sequence (P20138 18-364 I242A limits assumed): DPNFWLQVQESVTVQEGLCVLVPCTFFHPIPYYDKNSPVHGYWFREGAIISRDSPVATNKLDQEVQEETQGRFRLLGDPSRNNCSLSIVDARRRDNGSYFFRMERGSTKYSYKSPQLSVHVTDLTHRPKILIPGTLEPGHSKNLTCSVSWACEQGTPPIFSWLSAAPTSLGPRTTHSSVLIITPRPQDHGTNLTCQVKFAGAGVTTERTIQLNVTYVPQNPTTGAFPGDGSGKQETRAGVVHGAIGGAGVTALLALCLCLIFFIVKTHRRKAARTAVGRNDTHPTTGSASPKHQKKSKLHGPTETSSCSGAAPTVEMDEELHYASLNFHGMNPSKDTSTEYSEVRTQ

human CD33 F243A (human) = human CD33 F243A (human) (UniProt P20138)
human CD33 I199A (human) = human CD33 I199A (human) (UniProt P20138)
human CD33 Q251A (human) = human CD33 Q251A (human) (UniProt P20138)
human CD33 Q251A (human), sequence (P20138 18-364 Q251A limits assumed): as the sequence (P20138 18-364 I242A limits assumed) above, with A225I, Q234A counted along it

human CD33 P235A (human) = human CD33 P235A (human) (UniProt P20138)
human CD33 H259A (human) = human CD33 H259A (human) (UniProt P20138)
human CD33 R225A (human) = human CD33 R225A (human) (UniProt P20138)
human CD33 A219S (human) = human CD33 A219S (human) (UniProt P20138)
human CD33 A219S (human), sequence (P20138 18-364 A219S limits assumed): as the sequence (P20138 18-364 I242A limits assumed) above, with A202S, A225I counted along it

human CD33 T211A (human) = human CD33 T211A (human) (UniProt P20138)
human CD33 L197A (human) = human CD33 L197A (human) (UniProt P20138)
human CD33 G256A (human) = human CD33 G256A (human) (UniProt P20138)
human CD33 T223A (human) = human CD33 T223A (human) (UniProt P20138)
human CD33 P201A (human) = human CD33 P201A (human) (UniProt P20138)
human CD33 G247A (human) = human CD33 G247A (human) (UniProt P20138)
human CD33 T240A (human) = human CD33 T240A (human) (UniProt P20138)
human CD33 L270A (human) = human CD33 L270A (human) (UniProt P20138)
human CD33 Q236A (human) = human CD33 Q236A (human) (UniProt P20138)
human CD33 R202A (human) = human CD33 R202A (human) (UniProt P20138)
human CD33 Q213A (human) = human CD33 Q213A (human) (UniProt P20138)
human CD33 P203A (human) = human CD33 P203A (human) (UniProt P20138)
human CD33 D246A (human) = human CD33 D246A (human) (UniProt P20138)
human CD33 Q228A (human) = human CD33 Q228A (human) (UniProt P20138)
human CD33 Y233A (human) = human CD33 Y233A (human) (UniProt P20138)
human CD33 R254A (human) = human CD33 R254A (human) (UniProt P20138)
human CD33 G263A (human) = human CD33 G263A (human) (UniProt P20138)
human CD33 L210A (human) = human CD33 L210A (human) (UniProt P20138)
human CD33 G218A (human) = human CD33 G218A (human) (UniProt P20138)
human CD33 G218A (human), sequence (P20138 18-364 G218A limits assumed): as the sequence (P20138 18-364 I242A limits assumed) above, with G201A, A225I counted along it

human CD33 C212A (human) = human CD33 C212A (human) (UniProt P20138)
human CD33 T232A (human) = human CD33 T232A (human) (UniProt P20138)
human CD33 T232A (human), sequence (P20138 18-364 T232A limits assumed): as the sequence (P20138 18-364 I242A limits assumed) above, with T215A, A225I counted along it

human CD33 F216A (human) = human CD33 F216A (human) (UniProt P20138)
human CD33 F216A (human), sequence (P20138 18-364 F216A limits assumed): as the sequence (P20138 18-364 I242A limits assumed) above, with F199A, A225I counted along it

human CD33 H206A (human) = human CD33 H206A (human) (UniProt P20138)
human CD33 T200A (human) = human CD33 T200A (human) (UniProt P20138)
human CD33 I262A (human) = human CD33 I262A (human) (UniProt P20138)
human CD33 I262A (human), sequence (P20138 18-364 I262A limits assumed): as the sequence (P20138 18-364 I242A limits assumed) above, with A225I, I245A counted along it

human CD33 D205A (human) = human CD33 D205A (human) (UniProt P20138)
human CD33 E224A (human) = human CD33 E224A (human) (UniProt P20138)
human CD33 E224A (human), sequence (P20138 18-364 E224A limits assumed): as the sequence (P20138 18-364 I242A limits assumed) above, with E207A, A225I counted along it

human CD33 A265S (human) = human CD33 A265S (human) (UniProt P20138)
human CD33 K215A (human) = human CD33 K215A (human) (UniProt P20138)
human CD33 N209A (human) = human CD33 N209A (human) (UniProt P20138)
human CD33 N209A (human), sequence (P20138 18-364 N209A limits assumed): as the sequence (P20138 18-364 I242A limits assumed) above, with N192A, A225I counted along it

human CD33 S248A (human) = human CD33 S248A (human) (UniProt P20138)
human CD33 T226A (human) = human CD33 T226A (human) (UniProt P20138)
human CD33 G245A (human) = human CD33 G245A (human) (UniProt P20138)
human CD33 I227A (human) = human CD33 I227A (human) (UniProt P20138)
human CD33 I227A (human), sequence (P20138 18-364 I227A limits assumed): as the sequence (P20138 18-364 I242A limits assumed) above, with I210A, A225I counted along it

human CD33 V267A (human) = human CD33 V267A (human) (UniProt P20138)
human CD33 I198A (human) = human CD33 I198A (human) (UniProt P20138)
human CD33 I198A (human), sequence (P20138 18-364 I198A limits assumed): as the sequence (P20138 18-364 I242A limits assumed) above, with I181A, A225I counted along it

human CD33 N230A (human) = human CD33 N230A (human) (UniProt P20138)
human CD33 N230A (human), sequence (P20138 18-364 N230A limits assumed): as the sequence (P20138 18-364 I242A limits assumed) above, with N213A, A225I counted along it

human CD33 G264A (human) = human CD33 G264A (human) (UniProt P20138)
human CD33 T268A (human) = human CD33 T268A (human) (UniProt P20138)
human CD33 T268A (human), sequence (P20138 18-364 T268A limits assumed): as the sequence (P20138 18-364 I242A limits assumed) above, with A225I, T251A counted along it

human CD33 V257A (human), sequence (P20138 18-364 V257A limits assumed): as the sequence (P20138 18-364 I242A limits assumed) above, with A225I, V240A counted along it

For Refmab #7 (WM53) (antibody), the Mean % WT Binding (human CD33 P238A (human)) was 129 % WT binding, the Mean % WT Binding (human CD33 A269S (human)) was 118 % WT binding and the Mean % WT Binding (human CD33 K250A (human)) was 118 % WT binding. For the same substance, the Mean % WT Binding (human CD33 V231A (human)) was 112 % WT binding, the Mean % WT Binding (human CD33 V257A (human)) was 124 % WT binding and the Mean % WT Binding (human CD33 G241A (human)) was 131 % WT binding. The Mean % WT Binding (human CD33 I242A (human)) was 105 % WT binding, the Mean % WT Binding (human CD33 F243A (human)) was 91.8 % WT binding and the Mean % WT Binding (human CD33 I199A (human)) was 115 % WT binding. For the same substance, the Mean % WT Binding (human CD33 Q251A (human)) was 108 % WT binding, the Mean % WT Binding (human CD33 P235A (human)) was 112 % WT binding and the Mean % WT Binding (human CD33 H259A (human)) was 119 % WT binding. For the same substance, the Mean % WT Binding (human CD33 R225A (human)) was 99.8 % WT binding, the Mean % WT Binding (human CD33 A219S (human)) was 121 % WT binding and the Mean % WT Binding (human CD33 T211A (human)) was 98.1 % WT binding. For the same substance, the Mean % WT Binding (human CD33 L197A (human)) was 115 % WT binding, the Mean % WT Binding (human CD33 G256A (human)) was 106 % WT binding and the Mean % WT Binding (human CD33 T223A (human)) was 110 % WT binding. It also gave a Mean % WT Binding (human CD33 P201A (human)) of 110 % WT binding, a Mean % WT Binding (human CD33 G247A (human)) of 123 % WT binding and a Mean % WT Binding (human CD33 T240A (human)) of 121 % WT binding. It also gave a Mean % WT Binding (human CD33 L270A (human)) of 99.8 % WT binding, a Mean % WT Binding (human CD33 Q236A (human)) of 94.3 % WT binding and a Mean % WT Binding (human CD33 R202A (human)) of 104 % WT binding. It also gave a Mean % WT Binding (human CD33 Q213A (human)) of 103 % WT binding, a Mean % WT Binding (human CD33 P203A (human)) of 113 % WT binding and a Mean % WT Binding (human CD33 D246A (human)) of 99.5 % WT binding. For the same substance, the Mean % WT Binding (human CD33 Q228A (human)) was 115 % WT binding, the Mean % WT Binding (human CD33 Y233A (human)) was 109 % WT binding and the Mean % WT Binding (human CD33 R254A (human)) was 126 % WT binding. The Mean % WT Binding (human CD33 G263A (human)) was 104 % WT binding, the Mean % WT Binding (human CD33 L210A (human)) was 98.6 % WT binding and the Mean % WT Binding (human CD33 G218A (human)) was 123 % WT binding. The Mean % WT Binding (human CD33 C212A (human)) was 17.8 % WT binding, the Mean % WT Binding (human CD33 T232A (human)) was 95.3 % WT binding and the Mean % WT Binding (human CD33 F216A (human)) was 112 % WT binding. The Mean % WT Binding (human CD33 H206A (human)) was 108 % WT binding, the Mean % WT Binding (human CD33 T200A (human)) was 97.6 % WT binding and the Mean % WT Binding (human CD33 I262A (human)) was 119 % WT binding. For the same substance, the Mean % WT Binding (human CD33 D205A (human)) was 0.8 % WT binding, the Mean % WT Binding (human CD33 E224A (human)) was 126 % WT binding and the Mean % WT Binding (human CD33 A265S (human)) was 110 % WT binding. The Mean % WT Binding (human CD33 K215A (human)) was 145 % WT binding, the Mean % WT Binding (human CD33 N209A (human)) was 128 % WT binding and the Mean % WT Binding (human CD33 S248A (human)) was 113 % WT binding. It also gave a Mean % WT Binding (human CD33 T226A (human)) of 99.1 % WT binding, a Mean % WT Binding (human CD33 G245A (human)) of 122 % WT binding and a Mean % WT Binding (human CD33 I227A (human)) of 101 % WT binding. The Mean % WT Binding (human CD33 V267A (human)) was 92.6 % WT binding, the Mean % WT Binding (human CD33 I198A (human)) was 111 % WT binding and the Mean % WT Binding (human CD33 N230A (human)) was 100 % WT binding. For the same substance, the Mean % WT Binding (human CD33 G264A (human)) was 82.8 % WT binding and the Mean % WT Binding (human CD33 T268A (human)) was 148 % WT binding.
